The target of one test is T1, PMCA (Mus musculus, UniProt Q6Q477).
T1 sequence (Q6Q477 1-1205): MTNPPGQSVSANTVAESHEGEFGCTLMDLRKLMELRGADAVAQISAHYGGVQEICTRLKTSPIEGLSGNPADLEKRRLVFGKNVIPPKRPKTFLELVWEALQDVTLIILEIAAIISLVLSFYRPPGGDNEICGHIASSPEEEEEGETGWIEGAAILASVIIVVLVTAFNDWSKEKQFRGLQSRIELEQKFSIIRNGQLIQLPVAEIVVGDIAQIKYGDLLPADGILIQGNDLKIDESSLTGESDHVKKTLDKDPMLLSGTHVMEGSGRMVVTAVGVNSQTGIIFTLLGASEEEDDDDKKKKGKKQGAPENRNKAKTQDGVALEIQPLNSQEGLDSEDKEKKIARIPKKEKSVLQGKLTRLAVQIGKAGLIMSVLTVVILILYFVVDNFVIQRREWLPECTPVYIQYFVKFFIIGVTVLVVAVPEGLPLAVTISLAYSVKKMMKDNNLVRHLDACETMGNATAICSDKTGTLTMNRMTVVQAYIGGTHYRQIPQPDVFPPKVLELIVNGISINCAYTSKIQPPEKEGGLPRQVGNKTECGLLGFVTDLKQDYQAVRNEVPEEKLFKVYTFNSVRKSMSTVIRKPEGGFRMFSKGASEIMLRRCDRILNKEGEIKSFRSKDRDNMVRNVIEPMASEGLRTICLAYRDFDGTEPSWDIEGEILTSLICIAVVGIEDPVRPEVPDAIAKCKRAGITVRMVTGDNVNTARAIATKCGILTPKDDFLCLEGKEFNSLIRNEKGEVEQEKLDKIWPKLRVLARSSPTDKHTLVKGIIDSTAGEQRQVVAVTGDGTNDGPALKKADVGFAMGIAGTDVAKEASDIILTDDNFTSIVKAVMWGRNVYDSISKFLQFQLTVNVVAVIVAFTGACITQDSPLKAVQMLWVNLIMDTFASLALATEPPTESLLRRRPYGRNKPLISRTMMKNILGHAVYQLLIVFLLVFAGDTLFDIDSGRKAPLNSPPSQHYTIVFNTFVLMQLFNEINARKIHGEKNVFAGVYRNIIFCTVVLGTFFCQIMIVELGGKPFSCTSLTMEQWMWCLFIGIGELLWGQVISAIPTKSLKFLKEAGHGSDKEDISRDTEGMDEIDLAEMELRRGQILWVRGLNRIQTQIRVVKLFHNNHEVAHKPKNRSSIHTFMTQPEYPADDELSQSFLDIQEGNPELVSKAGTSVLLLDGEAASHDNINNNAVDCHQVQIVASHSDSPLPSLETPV
As to the kind of experiment: Ca2+ efflux through PMCA, time lapse confocal microscopy, mouse acinar cells. In kind it is cell-based. The procedure: FIGS. 12A-12F, depict the results of experiments showing renalase increases Ca^2+ efflux through PCMA. Changes in whole cell cytosolic Ca^2+ were recorded with the Ca^2+ dye Fluo-4 (HK2 cells) or Fluo-5 (acinar cell) by time lapse confocal microscopy. FIGS. 12A, 12B, 12D, and 12E are representative plots of fluorescence over time in HK2 cells (FIGS. 12A and 12B) or mouse acinar cells (FIGS. 12D and 12E). Cells were pretreated with 30 μM cyclopiazonic acid and perfused with Ca^2+-free medium. Cells were briefly stimulated with 10 nM angiotensin IV (Ang in HK2 cells) or 100 nM cerulein (Cer in acinar cells) in the presence of 1.3 mM Ca^2+. […] For FIGS. 12C and 12F, the rate of Ca^2+ efflux was quantified from 30 cells/treatment group. *p<0.05 vs. no renalase. […]
PMCA selectively binds renalase (FIG. 6). […] Since the protective effects of renalase were first characterized in HK-2 cells (human kidney cell line) (Lee et al., 2013, J Am Soc Nephrol 24, 445-455; Wang et al., 2014, Journal of the American Society of Nephrology: JASN), its effects on Ca^2+ signals were evaluated in these cells and subsequently in mouse acinar cells (FIG. 12). […] Perfusion buffer was then switched back to Ca^2+-free medium in the presence or absence of renalase, and cytosolic Ca^2+ levels were monitored over time and the rates of Ca^2+ efflux were calculated (FIG. 12). […]

In a further test the test system is ERK. Conditions: HK-2 cell, treatment alone; Wang et al., 2014; cited from earlier work.
A further test relates to mice. The settings on record: literature (Lee et al., 2013; Wang et al., 2014); cited from earlier work.
The conditions of test [1]: cited from earlier work.

Entries after “also recorded” stand apart in the source; their conditions may differ.

B1: recombinant renalase: recombinant full-length human renalase, secretory flavoprotein oxidase; synthesized as in Desir et al., 2012; SEQ ID NO: 8 or 9 (protein)
chain: ALLRRQTSGPLYLAVWDKAEDSGGRMTTACSPHNPQCTADLGAQYITCTPHYAKKHQRFYDELLAYGVLRPLSSPIEGMVMKEGDCNFVAPQGISSIIKHYLKESGAEVYFRHRVTQINLRDDKWEVSKQTGSPEQFDLIVLTMPVPEILQLQGDITTLISECQRQQLEAVSYSSRYALGLFYEAGTKIDVPWAGQYITSNPCIRFVSIDNKKRNIESSEIGPSLVIHTTVPFGVTYLEHSIEDVQELVFQQLENILPGLPQPIATKCQKWRHSQVTNAAANCPGQMTLHHKPFLACGGDGFTQSNFDGCITSALCVLEALKNYI
As for B1, the “baseline Ca2+ levels” value with PMCA is “did not change”. In the test with PMCA (100 nM cerulein, Ca2+-free medium, cyclopiazonic acid), the “rate of Ca2+ efflux” value is reported as “increased”. Moreover, the ERK phosphorylation entry in the test with ERK is recorded as “rapidly increased”. Besides, in the test with mice, the “ischemic acute kidney injury (AKI)” value was “significantly attenuates; also recorded: protects mice against ischemic AKI”. Moreover, in test [1] (rodents, Xu et al., 2005, Milani et al., 2011), the blood pressure result is “decreases blood pressure”. In addition, in test [1] (wild type (WT) mice), the plasma catecholamines result is listed as “lowers” and the systemic blood pressure entry was “lowers”.

The values above are taken from patent US11124779B2, “Compositions and methods for treating and preventing pancreatitis, renal injury and cancer” (Yale University, priority 2014, dated 2021).
